Results published in patent US20070207967A1, “Peptide Inhibitors of Matrix Metalloproteinase Activity” (CTT CANCER TARGETING TECHNOLOGIES OY, priority 2004, published 2007).

Columns and labels:
MMP-9 C domain = molecular target: T1, MMP-9 C domain (Homo sapiens, UniProt P14780); assay: Dimerization of the MMP-9 C domain; assay type: binding; details: 125I-labelled C domain on unlabelled C domain
T1 construct: MMP-9 (Asp^494-Asp^688) were expressed as described (16); made in house; host or cells: E. coli (β5 fragment)
T1 sequence (P14780 513-707 limits assumed): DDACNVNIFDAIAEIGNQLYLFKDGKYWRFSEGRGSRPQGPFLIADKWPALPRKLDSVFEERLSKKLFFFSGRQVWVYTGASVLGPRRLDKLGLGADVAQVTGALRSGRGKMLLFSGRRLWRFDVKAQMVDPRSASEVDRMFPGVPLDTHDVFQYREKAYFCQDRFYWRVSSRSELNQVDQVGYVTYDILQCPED
Description: Dimerization of the MMP-9 C domain. Recombinant C domain or CBD at a 5 μg/ml concentration in PBS were coated on microtiter wells followed by blocking with 1% BSA-PBST. ^125I-labelled C domain was preincubated with the peptides for 30 minutes in 1% BSA-PBST and then added to the wells. After a 2 hour incubation, the wells were washed. Bound radioactivity was eluted with 1% SDS and measured with a gamma-counter.

pro-MMP-2 = assay: Pro-MMP-2 activation in HT1080 cells, zymography; assay type: cell-based, human; details: PDBu-activated HT1080, peptides 200 μM
Description: Activation of MMP-9. THP-1 cells (40 000/100 μl) or confluent HT1080 cells were incubated for 16 h in the presence or absence of 2.5 μg/ml plasminogen, 0.5 μg/ml pro-MMP-3 (Oncogene Research Products), 40 nM PDBu, and the peptides at a 200 μM concentration unless otherwise indicated. Aliquots of the conditioned media were analyzed by gelatin zymography (9). […] The samples were analyzed by gelatin zymography.

HT1080 fibrosarcoma = assay: HT1080 invasion through matrigel; assay type: cell-based, human; details: 200 μM concentration
Description: Cell migration and invasion. The cell migration assay was conducted using transwell migration chambers (8 μm pore size, Costar) in 10% serum-containing medium (2,14). Briefly, the membranes were coated on both sides with 40 μg/ml GST or with the β2 integrin ligand peptide […]-GST fusion (GST-LLG-C4) and blocked with complete medium. THP-1 cells (50 000/100 μl) were preincubated with the peptides for 1 h in serum-containing medium. The cells were allowed to migrate for 16 h and were then stained with crystal violet and counted (14). The HT1080 (20 000 cells/I100 μl) invasion assay was performed as the THP-1 migration, except that matrigel coated transwells (BD Biosciences) were used.

pro-MMP-9 = pro-MMP-9 (Homo sapiens, UniProt P14780); assay: Phage binding to pro-MMP-9 with competitors; details: competitor peptides 20 μM, gelatin 2.5 μg/ml
Chain of pro-MMP-9 (P14780 20-707 limits assumed): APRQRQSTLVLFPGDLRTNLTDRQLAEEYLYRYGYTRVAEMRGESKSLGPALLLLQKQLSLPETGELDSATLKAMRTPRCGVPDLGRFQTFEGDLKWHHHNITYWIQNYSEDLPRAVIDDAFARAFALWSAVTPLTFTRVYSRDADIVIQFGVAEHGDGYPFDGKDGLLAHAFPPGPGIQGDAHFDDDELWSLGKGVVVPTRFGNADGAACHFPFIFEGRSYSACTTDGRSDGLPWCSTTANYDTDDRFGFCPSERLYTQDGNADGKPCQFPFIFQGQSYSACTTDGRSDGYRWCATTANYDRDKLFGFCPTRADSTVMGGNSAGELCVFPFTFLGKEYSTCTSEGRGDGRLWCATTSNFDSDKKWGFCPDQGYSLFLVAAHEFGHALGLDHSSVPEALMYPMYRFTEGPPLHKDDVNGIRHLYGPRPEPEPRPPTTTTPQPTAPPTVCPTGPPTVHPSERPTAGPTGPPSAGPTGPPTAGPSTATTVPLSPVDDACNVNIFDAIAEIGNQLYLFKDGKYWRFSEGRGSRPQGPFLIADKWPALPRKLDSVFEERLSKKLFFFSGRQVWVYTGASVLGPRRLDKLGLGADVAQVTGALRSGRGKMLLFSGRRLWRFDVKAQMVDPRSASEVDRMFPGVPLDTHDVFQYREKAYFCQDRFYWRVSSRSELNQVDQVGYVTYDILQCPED
Description: Phage display. Phage display selections were made using random peptide libraries CX7-10C and X9-10 (13). Purified human pro-MMP-9 (9) or recombinant MMP-9 C domain (2 μg/ml) was immobilized on microtiter wells and the wells were blocked with BSA. The phage were added in 50 mM Hepes (pH 7.5)/5 mM CaCl2/1 μM ZnCl2/150 mM NaCl/2% BSA. After three rounds of selection the phage sequences were determined (14). The phage binding specificity was tested with pro-MMPs or the recombinant domains (20 ng/well). The phage (10^8 transducing units/well) were allowed to bind in the absence or presence of competitor peptides (20 μM), gelatin (2.5 μg/ml) or TIMP-1 (2.5 μg/ml, Calbiochem) followed by washings with PBS/0.05% Tween20 (PBST). The phage were detected with a peroxidase-conjugated anti-phage antibody (Amersham Biosciences).

HT1080 cells = assay: HT1080 cell adhesion to vitronectin or fibronectin; assay type: cell-based, human; details: proteins 40 μg/ml, CRV peptide 200 μM
Description: Cell adhesion. HT1080 cells were allowed to adhere on vitronectin or fibronectin (2 μg/ml) in the presence or absence of peptides (200 μM), proteins (40 μg/ml) or a monoclonal anti-αvβ5 integrin antibody P1F6 (Chemicon) or a control antibody (25 μg/ml). The adhesion was quantified as described (14). Adhesion of THP-1 cells to immobilized KIM127 or control monoclonal antibodies (2 μg/ml) was done in the presence or absence of soluble proteins (50 μg/ml) or antibodies (25 μg/ml).

CBD = molecular target: T2, CBD (Homo sapiens, UniProt P14780); assay: Gelatin binding to immobilized CBD; details: biotinylated gelatin
T2 construct: CBD (amino acids Gly^204-Gly^373) was amplified from MMP-9 cDNA; made in house; host or cells: E. coli
T2 sequence (P14780 223-392 limits assumed): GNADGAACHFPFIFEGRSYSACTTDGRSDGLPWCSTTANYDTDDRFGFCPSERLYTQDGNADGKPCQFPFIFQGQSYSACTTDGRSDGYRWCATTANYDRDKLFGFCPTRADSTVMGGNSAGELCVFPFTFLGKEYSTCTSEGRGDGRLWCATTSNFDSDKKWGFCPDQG
Description: Gelatin and CBD binding assays. Recombinant CBD or human plasma fibronectin (Calbiochem) (0.2 μg/ml in TBS) was immobilized in microtiter wells. The wells were saturated with 1% BSA-PBST. Biotinylated gelatin (0.2 μg/ml in 1% BSA-PBST) was added with or without peptides at the concentrations indicated or with an excess of unlabelled gelatin (10 μg/ml) and allowed to bind for 1 h. Bound gelatin was detected with streptavidin-peroxidase. CBD binding to immobilized fibronectin, the 110-kDa fragment of fibronectin (Upstate Biotechnology) or urea-denaturated human plasma vitronectin (17) (1 μg/well) was studied using biotinylated CBD (5 μg/ml) in 1% BSA-PBST in the presence or absence of 20 μM peptides.

CRVYGPYLLC
Inhibition of dimerization of the C domain (MMP-9 C domain): inhibited
Inhibition of activation of pro-MMP-2 (pro-MMP-2): partially
Inhibition of HT1080 invasion into matrigel (HT1080 fibrosarcoma): 50%
Binding of PPC peptide-bearing phage to pro-MMP-9, competition (pro-MMP-9): not
Binding of the CRV-phage to pro-MMP-9, competition (pro-MMP-9; TIMP-1 2.5 μg/ml): inhibited
Inhibition of HT1080 cell adhesion to vitronectin or fibronectin (HT1080 cells): Neither
Inhibition of gelatin binding to immobilized CBD (CBD): not
